Positions count from the first letter of the chain named. Values belong to the binder of their own block, whether it stands above or below them.
What was measured:
[1] = biological target: T1, mouse DLL4 on the cell surface (mouse, UniProt Q9JI71 27-686); assay: FACS on DLL4 cells
T1 construct: whole, on cells; also called HEK293-mDLL4; mDLL4-293G

[2] = biological target: T2, human DLL4 on the cell surface (human, UniProt Q9NR61 27-685); assay: FACS on DLL4 cells
T2 construct: whole, on cells; also called HEK293-hDLL4; hDLL4-293G

[3] = biological target: T1, mouse DLL4 on the cell surface; assay: competition FACS, competitor huNotch-1;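 further: stable cell lines displaying human or mouse DLL4 on their surface, Notch binding detected by flow cytometry via R-phycoerythrin streptavidin fluorescence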
Method: (§1) Notch blocking assay: Briefly, stable cell lines overexpressing cell-surface DLL4 were harvested from tissue culture flasks and re-suspended in phosphate buffered saline (PBS) containing 1% bovine serum albumin and 1 mM CaCl₂ (FACS buffer). HEK293-hDLL4 or HEK293-mDLL4 cells were dispensed into 96-well plate (v-bottom) at 1.5×10⁵ cells/well in FACS buffer. […] After washing the cells two times with FACS buffer, 50 μL of R-phycoerythrin-conjugated streptavidin (1:150 dilution in FACS buffer) (Jackson ImmunoResearch, West Grove, Pa., US, catalog no. 016-110-084) were added. Following an incubation on ice (4° C., 60 minutes), cells were washed three times and resuspended in FACS buffer. Fluorescence was measured using a Becton Dickinson FACSCalibur-HTS (Becton Dickinson, San Jose. Calif.).

[4] = biological target: T2, human DLL4 on the cell surface; assay: competition FACS, competitor huNotch-1;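 further: stable cell lines displaying human or mouse DLL4 on their surface, Notch binding detected by flow cytometry via R-phycoerythrin streptavidin fluorescence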
Method: as §1

[5] = biological target: T3, mouse DLL4 extracellular domain (mouse, UniProt Q9JI71 27-532); assay: Biacore SPR;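 further: surface plasmon resonance on a Biacore instrument, antibodies captured on immobilized anti-human Fc, purified recombinant DLL4 extracellular domain injected as analyte, binding followed over time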
T3 construct: extracellular domain; also called muDLL4 ECD; Mouse DLL4 ECD
Method: (§2) Binding of DLL4 antibodies to a purified recombinant DLL4 extracellular domain is determined by surface plasmon resonance-based measurements with a Biacore® instrument (either a Biacore 2000, Biacore 3000, or Biacore T100, GE Healthcare, Piscataway, N.J. US) using running buffer HBS-EPB (10 mM HEPES [pH 7.4], 150 mM NaCl, 3 mM EDTA, 0.1 mg/ml BSA and 0.005% surfactant P20) at 25° C. For example, approximately 9000 RU of goat anti-human Fc specific polyclonal antibody (Thermo Fisher Scientific Inc., Rockford, Ill., US) diluted in 10 mM sodium acetate (pH 4.5) is directly immobilized across a CM5 research grade biosensor chip using a standard amine coupling kit according to manufacturer's instructions and procedures at 25 μg/ml. Unreacted moieties on the biosensor surface are blocked with ethanolamine. For kinetic analysis, rate equations derived from the 1:1 Langmuir binding model are fitted simultaneously to multiple antigen injections (using global fit analysis) with the use of Scrubber 2 (BioLogic Software). […] The equilibrium dissociation constant KD (M) of the reaction between antibodies and the target antigen is then calculated from the kinetic rate constants by the following formula: KD=Koff/Kₒₙ. Binding is recorded as a function of time and kinetic rate constants are calculated. In this assay, on-rates as fast as 10⁶ M⁻¹s⁻¹ and off-rates as slow as 10⁻⁶ s⁻¹ can be measured.

[6] = biological target: T4, human DLL4 extracellular domain (human, UniProt Q9NR61 27-529); assay: Biacore SPR;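 further: surface plasmon resonance on a Biacore instrument, antibodies captured on immobilized anti-human Fc, purified recombinant DLL4 extracellular domain injected as analyte, binding followed over time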
T4 construct: extracellular domain; coated on plates in the sVEGFR1 assay; also called huDLL4 ECD; Human DLL4 ECD
Method: as §2

[7] = biological target: T2, human DLL4 on the cell surface; assay: cell-based or functional assay

T3 sequence (Q9JI71 27-532): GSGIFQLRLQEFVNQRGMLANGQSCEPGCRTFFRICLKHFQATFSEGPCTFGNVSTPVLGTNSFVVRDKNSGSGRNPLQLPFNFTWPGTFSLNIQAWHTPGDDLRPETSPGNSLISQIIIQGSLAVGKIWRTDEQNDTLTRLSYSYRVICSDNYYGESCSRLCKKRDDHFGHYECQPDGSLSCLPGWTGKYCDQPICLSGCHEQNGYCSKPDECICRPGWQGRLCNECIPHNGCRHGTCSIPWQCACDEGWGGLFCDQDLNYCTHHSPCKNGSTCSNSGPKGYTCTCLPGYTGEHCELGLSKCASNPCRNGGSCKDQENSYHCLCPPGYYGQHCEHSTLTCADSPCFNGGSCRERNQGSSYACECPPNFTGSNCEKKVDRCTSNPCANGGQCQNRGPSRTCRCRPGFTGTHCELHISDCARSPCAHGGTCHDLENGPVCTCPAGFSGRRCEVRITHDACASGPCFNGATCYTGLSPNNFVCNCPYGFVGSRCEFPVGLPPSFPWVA
T1 sequence (Q9JI71 27-686): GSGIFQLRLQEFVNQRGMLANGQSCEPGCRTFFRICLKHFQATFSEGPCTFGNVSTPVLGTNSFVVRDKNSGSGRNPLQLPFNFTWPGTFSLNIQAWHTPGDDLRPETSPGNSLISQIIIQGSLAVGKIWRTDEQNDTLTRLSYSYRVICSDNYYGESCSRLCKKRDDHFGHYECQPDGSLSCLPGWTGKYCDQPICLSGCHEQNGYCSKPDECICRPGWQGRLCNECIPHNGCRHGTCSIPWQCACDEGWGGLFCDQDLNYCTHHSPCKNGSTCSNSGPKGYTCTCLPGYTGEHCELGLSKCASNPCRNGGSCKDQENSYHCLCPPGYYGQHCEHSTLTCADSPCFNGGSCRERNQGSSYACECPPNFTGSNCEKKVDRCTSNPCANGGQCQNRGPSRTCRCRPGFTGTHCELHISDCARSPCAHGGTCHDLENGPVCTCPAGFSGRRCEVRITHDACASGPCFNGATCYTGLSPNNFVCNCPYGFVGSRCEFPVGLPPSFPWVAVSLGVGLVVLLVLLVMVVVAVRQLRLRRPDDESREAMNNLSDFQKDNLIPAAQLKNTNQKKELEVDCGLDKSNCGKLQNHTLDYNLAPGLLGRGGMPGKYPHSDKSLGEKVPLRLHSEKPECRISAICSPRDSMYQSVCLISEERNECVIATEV

B1: E9.4 (antibody, V domains shown)
VH: EVQLQESGPGLVKPSETLSLTCTVSGGSISSSSYYWGWIRQPPGKGLEWIGDIYYTGSTYYNPSLKSRVTISVDTSKNQFSLKLSSVTAADTAVYYCARYDVSLGGSSDHWGQGTLVTVSS
VL: SYELTQPPSVSVSPGQTASITCSGQRLGDKYASWYQQKPGQSPVLVIYEDSKRPSGIPERFSGSNSGDTATLTISGTQPMDEADYYCQAWDRDTGVFGYGTKVTVL
notes: also called DLL4-E9-4 hIgG1/L
EC50 [1]: 0.63 nM
EC50 [2]: 1.63 nM
IC50 [3]: 0.3 nM
IC50 [4]: 4.3 nM
Kd [5]: 1.12 nM
koff [5]: 6.01e-05 s⁻¹
kon [5]: 53800 M⁻¹ s⁻¹
Kd [6]: 0.58 nM
koff [6]: 3.31e-05 s⁻¹
kon [6]: 56700 M⁻¹ s⁻¹

B3: E9.1F (antibody, V domains shown)
VH: B1 VH with S32G, Y54N, T56I, Y100E, D101A, L104F, S107G, S108A, H110S
VL: B1 VL with Q25D, A32V, K52Q, P79A, R92M, D93E, T94A, Y99S
notes: also called E9.IF
EC50 [1]: 0.37 nM
EC50 [2]: 2.65 nM
IC50 [3]: 0.65 nM
IC50 [4]: 6.55 nM
Kd [6]: 0.05 nM
koff [6]: 1.16e-05 s⁻¹
kon [6]: 218000 M⁻¹ s⁻¹

B4: E9.12B (antibody, V domains shown)
VH: B1 VH with S33N, Y100E, D101A, L104F, S107G, S108A, H110S
VL: SYELTQPPSVSVSPGQTASITCSGDGLGDKYVSWYQQKPGQSPVLVIYEDSTRPSGIPERFSGSNSGDTATLTISGTQPMDEADYYCQAWDSESGVFGSGTKVT
EC50 [1]: 0.71 nM
EC50 [2]: 3.34 nM
IC50 [3]: 0.37 nM
IC50 [4]: 4.44 nM
Kd [5]: 0.18 nM
koff [5]: 1.47e-05 s⁻¹
kon [5]: 83500 M⁻¹ s⁻¹
Kd [6]: 0.02 nM
koff [6]: 3.1e-06 s⁻¹
kon [6]: 151000 M⁻¹ s⁻¹

B5: E9.10H (antibody, V domains shown)
VH: B1 VH with S33G, S58N, S67N, Y100E, D101E, S103I, S107G, S108A, H110Q
VL: B4 VL with D25E, G26S, T52K, P79A, S92G, S94T
EC50 [1]: 0.82 nM
EC50 [2]: 3.52 nM
IC50 [3]: 0.6 nM
IC50 [4]: 5.65 nM
Kd [5]: 0.34 nM
koff [5]: 2.23e-05 s⁻¹
kon [5]: 65300 M⁻¹ s⁻¹
Kd [6]: 0.57 nM
koff [6]: 5.9e-05 s⁻¹
kon [6]: 104000 M⁻¹ s⁻¹

B6: E9.5E (antibody, V domains shown)
VH: B1 VH with Y54N, T56I, Y100E, D101S, S103P, S107G, S108A, H110E
VL: B4 VL with G26M, T52Q, S94T
EC50 [1]: 0.89 nM
EC50 [2]: 2.7 nM
IC50 [3]: 0.34 nM
IC50 [4]: 3.76 nM
Kd [5]: 0.02 nM
koff [5]: 2e-06 s⁻¹
kon [5]: 89000 M⁻¹ s⁻¹
Kd [6]: 0.04 nM
koff [6]: 6e-06 s⁻¹
kon [6]: 150000 M⁻¹ s⁻¹

B8: E9.18 (antibody, V domains shown)
VH: B1 VH with S33G, Y54N, T56A, Y100E, S103I, G105R, S107G, H110Y
VL: B1 VL
notes: also called DLL4-E9-18 hIgG1/L
Kd [5]: 0.73 nM
koff [5]: 1.68e-05 s⁻¹
kon [5]: 23200 M⁻¹ s⁻¹
Kd [6]: 1.18 nM
koff [6]: 1.84e-05 s⁻¹
kon [6]: 15700 M⁻¹ s⁻¹

B9: E9.13 (antibody, V domains shown)
VH: B1 VH with Y100E, S103I, G105R, S107G, H110Y
VL: B1 VL with Q25D, R26T, A32V, K52E, R92S, D93E, Y99S
notes: also called DLL4-E9-13 hIgG1/L
Kd [5]: 4.89 nM
koff [5]: 0.000212 s⁻¹
kon [5]: 43400 M⁻¹ s⁻¹
Kd [6]: 1.33 nM
koff [6]: 4.97e-05 s⁻¹
kon [6]: 37400 M⁻¹ s⁻¹

B11: E9.17 (antibody, V domains shown)
VH: B1 VH with Y100E, D101E, V102A, S103I, S107G, H110Y
VL: B1 VL
notes: also called DLL4-E9-17 hIgG1/L
EC50 [1]: 2.57 nM
EC50 [2]: 8 nM
Inhibition of Notch activation via huDLL4 cells, coculture (IC50, nM) [7]: 1 nM
IC50 [4]: 19.8 nM
Kd [5]: 0.38 nM
koff [5]: 1.41e-05 s⁻¹
kon [5]: 37000 M⁻¹ s⁻¹
Kd [6]: 0.1 nM
koff [6]: 4.4e-06 s⁻¹
kon [6]: 43900 M⁻¹ s⁻¹

B12: E9.11 (antibody, V domains shown)
VH: B1 VH with Y100E, D101A, S103P, S107G, H110Y
VL: B1 VL
notes: also called DLL4-E9-11 hIgG1/L
EC50 [1]: 1.45 nM
EC50 [2]: 4.46 nM
IC50 [3]: 2.06 nM
IC50 [4]: 14.8 nM
Kd [5]: 0.5 nM
koff [5]: 1.39e-05 s⁻¹
kon [5]: 27700 M⁻¹ s⁻¹
Kd [6]: 0.48 nM
koff [6]: 1.74e-05 s⁻¹
kon [6]: 36300 M⁻¹ s⁻¹

B14: E9.10E (antibody, V domains shown)
VH: B1 VH with S30N, S32G, S33N, Y54S, Y100E, S103M, L104Y, S107G, S108G, H110S
VL: B4 VL with D25E, T52E, P79A, S94A
EC50 [1]: 1.19 nM
EC50 [2]: 5.1 nM
IC50 [3]: 0.36 nM
IC50 [4]: 3.83 nM
Kd [5]: 0.62 nM
koff [5]: 9.41e-05 s⁻¹
kon [5]: 151000 M⁻¹ s⁻¹
Kd [6]: 0.21 nM
koff [6]: 4.62e-05 s⁻¹
kon [6]: 218000 M⁻¹ s⁻¹

B15: E9.14 (antibody, V domains shown)
VH: B1 VH with S31N, S33R, Y35H, P42S, A90E, Y100E, S103I, G105R, S107G, H110Y
VL: B1 VL
notes: also called DLL4-E9-14 hIgG1/L
Kd [5]: 3.49 nM
koff [5]: 0.000136 s⁻¹
kon [5]: 38900 M⁻¹ s⁻¹
Kd [6]: 9.14 nM
koff [6]: 0.000365 s⁻¹
kon [6]: 39900 M⁻¹ s⁻¹

B19: A10.L45 (antibody, V domains shown)
VH: EVQLVESGGGLVKSGGSLRLSCAASGFTFRSHWMSWVRQAPGKGLEWVAIISYDGSNKYSADSVKGRFTISRDNSKNTLYLQLNSLRAEDTAVYYCAKAGGGNVGFDIWGQGTMVTVSS
VL: SYELTQPPSVSVSPGQTASITCSADELGTQYVSWYQQKPGQSPVLVIYQDATRPSGIPERFSGSNSGNTATLTISGTQAMDEADYYCQAWDRSGVVFGGGTKLTVL
binding result [5]: no binding
Kd [6]: 0.72 nM
koff [6]: 3.16e-05 s⁻¹
kon [6]: 44000 M⁻¹ s⁻¹

More lines, now with the values ahead:

Inhibition of Notch activation via huDLL4 cells, coculture (IC50, nM) [7]: 0.65 nM
B2: E9.71(M)-3 (antibody, human IgG1, V domains shown)
VH: B1 VH with Y100Q, D101A, V102L, S103A, L104M, S107G, H110K
VL: YELTQPPSVSVSPGQTASITCSGQRLGDKYASWYQQKPGQSPVLVIYEDSKRPSGIPERFSGSNSGDTATLTISGTQPMDEADYYCQAWDRDTGVFGGGTKLTVLG

EC50 [1]: 0.7 nM
EC50 [2]: 2.02 nM
IC50 [3]: 0.99 nM
IC50 [4]: 5.03 nM
Kd [5]: 0.5 nM
koff [5]: 1.44e-05 s⁻¹
kon [5]: 28900 M⁻¹ s⁻¹
Kd [6]: 0.078 nM
koff [6]: 2.5e-06 s⁻¹
kon [6]: 32600 M⁻¹ s⁻¹
B7: E9.66 (antibody, V domains shown)
VH: B1 VH with Y100E, D101G, S103P, S107G, S108A, H110K
VL: B1 VL
notes: also called DLL4-E9-66 hIgG1/L

Kd [5]: 5.27 nM
koff [5]: 0.000136 s⁻¹
kon [5]: 25700 M⁻¹ s⁻¹
Kd [6]: 14 nM
koff [6]: 0.000363 s⁻¹
kon [6]: 25900 M⁻¹ s⁻¹
B10: E9.65 (antibody, V domains shown)
VH: B1 VH with S30R, S31N, S33R, Y35H, S67G, Y100E, S103I, G105R, S107G, H110Y
VL: B1 VL

EC50 [1]: 37.4 nM
EC50 [2]: 34.3 nM
IC50 [3]: 2.63 nM
IC50 [4]: 21.1 nM
Kd [5]: 3.5 nM
koff [5]: 0.000133 s⁻¹
kon [5]: 37800 M⁻¹ s⁻¹
Kd [6]: 8.46 nM
koff [6]: 0.000331 s⁻¹
kon [6]: 39100 M⁻¹ s⁻¹
B13: E9.22 (antibody, V domains shown)
VH: B1 VH with S31N, S33R, Y35H, S67G, Y100E, S103I, G105R, S107G, H110Y
VL: B1 VL
notes: also called DLL4-E9-22 hIgG1/L

EC50 [1]: 0.29 nM
EC50 [2]: 0.27 nM
IC50 [3]: 0.18 nM
IC50 [4]: 2.12 nM
B16: E9.71(M) (antibody, human IgG1, V domains shown)
VH: B1 VH with Y100Q, D101A, V102L, S103A, L104M, S107G, H110K
VL: SYELTQPPSVSVSPGQTASITCSGQRLGDKYASWYQQKPGQSPVLVIYEDSKRPSGIPERFSGSNSGDTATLTISGTQPMDEADYYCQAWDRDTGVFGGGTKLTVLG

EC50 [1]: 0.13 nM
EC50 [2]: 1.66 nM
IC50 [3]: 1.2 nM
IC50 [4]: 7.76 nM
Kd [5]: 9.27 nM
koff [5]: 0.000171 s⁻¹
kon [5]: 18400 M⁻¹ s⁻¹
Kd [6]: 2.75 nM
koff [6]: 3.48e-05 s⁻¹
kon [6]: 12700 M⁻¹ s⁻¹
B17: E9.38 (antibody, V domains shown)
VH: B1 VH with Y100E, S103I, G105R, S107G, H110Y
VL: B1 VL with A32V, T94V, Y99S
notes: also called DLL4-E9-38 hIgG1/L

IC50 [3]: 1.3 nM
IC50 [4]: 9.12 nM
Kd [5]: 2.53 nM
koff [5]: 4.17e-05 s⁻¹
kon [5]: 16500 M⁻¹ s⁻¹
Kd [6]: 6.92 nM
koff [6]: 7.59e-05 s⁻¹
kon [6]: 11000 M⁻¹ s⁻¹
B18: E9.48 (antibody, V domains shown)
VH: B1 VH with S33G, Y54N, T56R, Y100E, S103I, G105R, S107G, H110Y
VL: B1 VL
notes: also called DLL4-E9-48 hIgG1/L

binding result [5]: no binding
Kd [6]: 4.06 nM
koff [6]: 0.000406 s⁻¹
kon [6]: 100000 M⁻¹ s⁻¹
B20: A10.K42 (antibody, V domains shown)
VH: B19 VH with K13Q, S14P, R30Q, I50M, S56T, N57I, S60Y
VL: B19 VL with E26K, Q30K, T52K, A79T, Y86L, A89S, G94D

binding result [5]: no binding
Kd [6]: 7.69 nM
koff [6]: 0.000274 s⁻¹
kon [6]: 35700 M⁻¹ s⁻¹
B21: A10.K30 (antibody, V domains shown)
VH: B19 VH with L11V, K13Q, S14P, R30G, S31N, I50D, Y53S, S56R, N57Y, S60Y
VL: B19 VL with E26K, Q30K, T52K, A79T, Y86L, A89S, G94D

binding result [5]: no binding
Kd [6]: 0.19 nM
koff [6]: 9.5e-06 s⁻¹
kon [6]: 50700 M⁻¹ s⁻¹
B22: A10.L73 (antibody, V domains shown)
VH: B19 VH
VL: B19 VL with A24G, E26N, T29S, T52Q

Reference: US20200255508A1 (AbbVie / Abbott, published 2020)
